The results in this text go back to patent US20230357447A1 (JANUX THERAPEUTICS, published 2023).

Ends that are not written are not given here.

Assay [1] deals with T1, anti-CD28 scFv (SEQ ID NO: 9).
T1 construct: also called Anti-CD28 scFv (VH-linker 1-VL)
The assay is described as follows: competition ELISA: peptide titrated against 2 nM anti-CD28 scFv; binding of the scFv to captured biotinylated CD28 antigen is read; table prints 'IC50 nM' but the axis is Log [Peptide, uM]; no fall of the signal. A general note: ELISA stands for enzyme-linked immunosorbent assay.

Assay [2] has as its target T2, Anti-CD28 scFv (VH-linker 1-VL) (biotinylated (site not stated)).
T2 construct: biotinylated and captured on neutravidin coated plates in the phage ELISA
Put plainly: phage ELISA, scFv wells pre-incubated with soluble CD28 (competitor); background signal 0.062.

The target of assay [3] is T2, Anti-CD28 scFv (VH-linker 1-VL). The assay is described as follows: phage ELISA, captured biotinylated scFv; background signal 0.062.
For assay [4], the target named is T3, Ab-12, anti-PD-L1xCD28 non-masked antibody in Vh format.
T3 construct: also called PDL1xCD28 non-masked (Vh)
Put plainly: competition ELISA: peptide titrated against 5 nM Ab-12; binding of Ab-12 to captured biotinylated CD28 antigen is read.

In assay [5] the target is T3, Ab-12, anti-PD-L1xCD28 non-masked …. The assay is described as follows: competition ELISA: peptide titrated against 5 nM Ab-12; binding of Ab-12 to captured biotinylated CD28 antigen is read; table prints 'IC50 nM' but the axis is Log [Peptide, uM]; no fall of the signal.

As a reminder, the IC50 is the midpoint of a concentration-inhibition curve. In the case of SFCGLFLDLWICEF (cysteine pairing not given here; also: biotinylated, site not given here, biotinylated when captured on the plate) [Peptide-4], the IC50 in assay [1] was more than 100 nM.

Take MDWCPIDLWHLCFY [Phage-90]: the “Phage binding ELISA CD28 scFv signal in presence of CD28” value in assay [2] amounted to 0.488. The “Phage binding ELISA CD28 scFv signal” value in assay [3] was determined as 2.59. Consider MDWCPRDMWSVCFS [Phage-32], for which the “Phage binding ELISA CD28 scFv signal in presence of CD28” value in assay [2] turned out to be 0.207. For the same molecule, the “Phage binding ELISA CD28 scFv signal” value in assay [3] came to 2.62.

B1: Peptide-45 (peptide)
peptide: MDWCPRFMWDECFN
modifications: cysteine pairing not given here; also: biotinylated, site not given here
notes: Synthetic biotinylated peptide loaded on streptavidin biosensors
With B1, the concentration for half-maximal inhibition (IC50) in assay [4] was 370 nM.

Take MHWCPMDQWSNCFN [Phage-56]: the “Phage binding ELISA CD28 scFv signal in presence of CD28” value in assay [2] was found to be 0.084. For the same molecule, the “Phage binding ELISA CD28 scFv signal” value in assay [3] is 0.515. WICDKSGSIMLCRA (cysteine pairing not given here; also: biotinylated, site not given here, biotinylated when captured on the plate) [Peptide-11] yielded an IC50 in assay [5] of more than 100 nM.

B2: Peptide-5 (peptide)
peptide: DNCYVIWGFEWQCR
modifications: cysteine pairing not given here; also: biotinylated when captured on plate, site not given here
notes: biotinylated when captured on the plate
B2 came in with an IC50 in assay [1] of more than 100 nM. For GCFTWSQRTFPFTC (cysteine pairing not given here; also: biotinylated, site not given here, biotinylated when captured on the plate) [Peptide-17], in assay [5], the IC50 is more than 100 nM.

B3: Peptide-48 (peptide)
peptide: MDWCPRYLWHVCFA
modifications: cysteine pairing not given here; also: biotinylated, site not given here
notes: as for B1
As to B3, in assay [4], the IC50 stood at 790 nM.

B4: Peptide-6 (peptide)
peptide: VNCMRVHRTLTWCV
modifications: cysteine pairing not given here; also: biotinylated when captured on plate, site not given here
notes: as for B2
Molecule B4 returned an IC50 in assay [1] of more than 100 nM.

Molecule NCQPWYWNMFAFGC (cysteine pairing not given here; also: biotinylated, site not given here, biotinylated when captured on the plate) [Peptide-15] had an IC50 in assay [5] of more than 100 nM. Still for that read-out and setting: for NCQPWYWNMIAFGC (cysteine pairing not given here; also: biotinylated, site not given here, biotinylated when captured on the plate) [Peptide-16] the value was more than 100 nM. For the molecule LICKSGSILILCAQ (cysteine pairing not given here; also: biotinylated, site not given here, biotinylated when captured on the plate) [Peptide-2], the IC50 in assay [1] is more than 100 nM.

Take MDWCPRFLWSECFN [Phage-95]: the “Phage binding ELISA CD28 scFv signal in presence of CD28” value in assay [2] worked out at 0.227. Further, the “Phage binding ELISA CD28 scFv signal” value in assay [3] stood at 2.57. On to MDWCPRYLWTECFN [Phage-100], for which the “Phage binding ELISA CD28 scFv signal in presence of CD28” value in assay [2] worked out at 0.549. Further, the “Phage binding ELISA CD28 scFv signal” value in assay [3] is 2.56.

B5: Peptide-7 (peptide)
peptide: FCTPREWSFLNFVC
modifications: cysteine pairing not given here; also: biotinylated when captured on plate, site not given here
notes: as for B2
For B5, in assay [1], the IC50 was more than 100 nM. Regarding DNCHYIWGFEWQCG (cysteine pairing not given here; also: biotinylated, site not given here, biotinylated when captured on the plate) [Peptide-13], in assay [5], the IC50 was more than 100 nM.

B6: Peptide-43 (peptide)
peptide: MDWCPRDMWSECFA
modifications: cysteine pairing not given here; also: biotinylated, site not given here
notes: as for B1
As to B6, the IC50 in assay [4] is 240 nM. In assay [5], GQHCATSMWRYCMF (cysteine pairing not given here; also: biotinylated, site not given here, biotinylated when captured on the plate) [Peptide-10] showed an IC50 of more than 100 nM. Consider MAWCPRDKWSECFS [Phage-41], for which the “Phage binding ELISA CD28 scFv signal in presence of CD28” value in assay [2] was found to be 0.147. For the same molecule, in assay [3], the “Phage binding ELISA CD28 scFv signal” value was 0.853. With IDCIMVHMVKPWCF (cysteine pairing not given here; also: biotinylated, site not given here, biotinylated when captured on the plate) [Peptide-14], in assay [5], the IC50 was more than 100 nM. On to SPCGLFQWMEICEF (cysteine pairing not given here; also: biotinylated, site not given here, biotinylated when captured on the plate) [Peptide-3], for which the IC50 in assay [1] was more than 100 nM.

In assay [1], YWYCSPSIVRCVLV (cysteine pairing not given here; also: biotinylated, site not given here, biotinylated when captured on the plate) [Peptide-1] gave an IC50 of more than 100 nM.

B7: Peptide-8 (peptide)
peptide: CFAYLWIDSWIRVC
modifications: cysteine pairing not given here; also: biotinylated when captured on plate, site not given here
notes: as for B2
Turning to B7, the IC50 in assay [1] and in assay [5] was more than 100 nM each time.

With MDWCPRDLWVHCFA [Phage-29], in assay [2], the “Phage binding ELISA CD28 scFv signal in presence of CD28” value amounted to 0.179. Moreover, the “Phage binding ELISA CD28 scFv signal” value in assay [3] was 2.55. MDWCPINLWDECFS [Phage-52]: the “Phage binding ELISA CD28 scFv signal in presence of CD28” value in assay [2] amounted to 0.096. Besides, the “Phage binding ELISA CD28 scFv signal” value in assay [3] was 1.5. In assay [5], CFYAEYYDQVYSFC (cysteine pairing not given here; also: biotinylated, site not given here, biotinylated when captured on the plate) [Peptide-18] displayed an IC50 of more than 100 nM.

B8: Peptide-44 (peptide)
peptide: MDWCPRDMWSVCFS
modifications: cysteine pairing not given here; also: biotinylated, site not given here
notes: as for B1
Molecule B8 returned an IC50 in assay [4] of 940 nM.

B9: Peptide-46 (peptide)
peptide: MDWCPRHMWNYCFA
modifications: cysteine pairing not given here; also: biotinylated, site not given here
notes: as for B1
Take B9: in assay [4], the IC50 is 240 nM.
